B1: adenovirus type 5 fiber protein joined to full length PSTCD (other)
chain: MKRARPSEDTFNPVYPYDTETGPPTVPFLTPPFVSPNGFQESPPGVLSLRLSEPLVTSNGMLALKMGNGLSLDEAGNLTSQNVTTVSPPLKKTKSNINLEISAPLTVTSEALTVAAAAPLMVAGNTLTMQSQAPLTVHDSKLSIATQGPLTVSEGKLALQTSGPLTTTDSSTLTITASPPLTTATGSLGIDLKEPIYTQNGKLGLKYGAPLHVTDDLNTLTVATGPGVTINNTSLQTKVTGALGFDSQGNMQLNVAGGLRIDSQNRRLILDVSYPFDAQNQLNLRLGQGPLFINSAHNLDINYNKGLYLFTASNNSKKLEVNLSTAKGLMFDATAIAINAGDGLEFGSPNAPNTNPLKTKIGHGLEFDSNKAMVPKLGTGLSFDSTGAITVGNKNNDKLTLWTTPAPSPNCRLNAEKDAKLTLVLTKCGSQILATVSVLAVKGSLAPISGTVQSAHLIIRFDENGVLLNNSFLDPEYWNFRNGDLTEGTAYTNAVGFMPNLSAYPKSHGKTAKSNIVSQVYLNGDKTKPVTLTITLNGTQETGDTTPSAYSMSFSWDWSGHNYINEIFATSSYTFSYIAQEKLKVTVNGTAYDVDVDVDKSHENPMGTILFGGGTGGAPAPAAGGAGAGKAGEGEIPAPLAGTVSKILVKEGDTVKAGQTVLVLEAMKMETEINAPTDGKVEKVLVKERDAVQGGQGLIKIG
modifications: biotin on lysine 89 of PSTCD (numbering of FIG. 1)
notes: also called fiber-PSTCD, full length form
B2: adenovirus type 5 fiber protein with the C-terminal 70 amino acid PSTCD domain (biotinylated) (other)
chain: MKRARPSEDTFNPVYPYDTETGPPTVPFLTPPFVSPNGFQESPPGVLSLRLSEPLVTSNGMLALKMGNGLSLDEAGNLTSQNVTTVSPPLKKTKSNINLEISAPLTVTSEALTVAAAAPLMVAGNTLTMQSQAPLTVHDSKLSIATQGPLTVSEGKLALQTSGPLTTTDSSTLTITASPPLTTATGSLGIDLKEPIYTQNGKLGLKYGAPLHVTDDLNTLTVATGPGVTINNTSLQTKVTGALGFDSQGNMQLNVAGGLRIDSQNRRLILDVSYPFDAQNQLNLRLGQGPLFINSAHNLDINYNKGLYLFTASNNSKKLEVNLSTAKGLMFDATAIAINAGDGLEFGSPNAPNTNPLKTKIGHGLEFDSNKAMVPKLGTGLSFDSTGAITVGNKNNDKLTLWTTPAPSPNCRLNAEKDAKLTLVLTKCGSQILATVSVLAVKGSLAPISGTVQSAHLIIRFDENGVLLNNSFLDPEYWNFRNGDLTEGTAYTNAVGFMPNLSAYPKSHGKTAKSNIVSQVYLNGDKTKPVTLTITLNGTQETGDTTPSAYSMSFSWDWSGHNYINEIFATSSYTFSYIAQEEGEIPAPLAGTVSKILVKEGDTVKAGQTVLVLEAMKMETEINAPTDGKVEKVLVKERDAVQGGQGLIKIG
modifications: biotin on lysine 89 of PSTCD (numbering of FIG. 1, full length PSTCD)
notes: also called fiber/PSTCD fusion protein; fiber of the biotinylated adenovirus

Target: the molecule itself
Test: Western blot of transfected cells, self-association (trimer) of the fiber fusion

Protein | binding result
B1 | no binding
B2 | binds
